The record followed here is patent US20110243972A1 (Johns Hopkins, published 2011).

For assay [1], the target named is T1, HLA-A2 on T2 cells (HLA-A*0201) (human).
T1 construct: Class I molecule on the T2 cell surface, stabilised by peptide; Detected with mAb W6/32; also called T2-A2
As to the kind of experiment: T2 stabilisation assay, flow cytometry with W6/32. An excerpt: (§1) T2 cells were pulsed with 225 micrograms of peptide per ml overnight at room temperature before analysis by flow cytometry. T2 cells expressing HLA-A2 (A) or HLA-A24 (C) were stained with an unlabeled mouse anti-HLA class I molecule monoclonal antibody W6/32 and a goat-anti-mouse FITC-labeled IgG2a secondary antibody. T2 cells genetically modified to express A3 (B) were stained with an unlabeled mouse anti-human HLA-A3 specific monoclonal antibody GAPA3 and a FITC-labeled IgG2a secondary antibody.
(§2) Materials and Methods. Peptide/MHC binding Assays. T2 cells expressing the HLA molecule of interest were resuspended in AimV serum free media (Gibco, Grand Island, N.Y.) to a concentration of 1×10⁶ cells/ml and pulsed with 3 μg/ml beta-2 microglobulin (β₂-M) (Sigma, St. Louis, Mo.) plus peptide at 0-225 μg/ml of peptide at room temperature overnight. The cells were washed and resuspended at 2×10⁵ cells/ml. The level of stabilized MHC on the cell surface of the T2 and T2-A24 cells were analyzed by direct staining of cell samples with unlabeled anti-class I mAb W6/32 and a FITC-labeled goat-anti-mouse IgG2a secondary antibody.

Assay [2] addresses T2, HLA-A3 on T2-A3 cells (HLA-A*0301) (human).
T2 construct: Detected with the anti-HLA-A3 mAb GAPA3
Briefly: T2-A3 stabilisation assay, flow cytometry with GAPA3.
Description: as §1, §2
On the technique in general: A flow cytometer gives signals particle by particle.

B1: Mesothelin A1 (309-317) peptide (EIDESLIFY) (peptide)
peptide: EIDESLIFY
On to B1, for which the binding result in assay [1] and in assay [2] was “no binding (tested: 225 micrograms of peptide per ml)” each time.
